Test results: patent publication US20220411536A1 (NUMAB THERAPEUTICS, published 2022)
Residue numbers refer to the chain shown, from its start. In names and notes the source's numbering stands. Values belong to the binder of their own block, whether it stands above or below them.

Columns and labels:
[1] = target: T1, Fc-tagged human PD-L1 extracellular domain (SinoBiological, cat. 10084-H02H) (human, UniProt Q9NZQ7 19-238); test: SPR, captured Fc-PD-L1 ECD, scFv analyte, kinetic
T1 construct: extracellular domain; also called hPD-L1; not shown: Fc tag of the bought protein

[2] = target: T1, Fc-tagged human PD-L1 extracellular …; test: SPR, alanine mutants of 33-03-G02
[3] = target: T2, human PD-L1 expressed on cells (CHO-PD-L1, HCC1954, HCC827) (human, UniProt Q9NZQ7 19-290); test: cell-based or functional assay
[4] = target: T2, human PD-L1 expressed on cells …; test: flow cytometry with human SA, inhibition of PD-1 binding to HCC1954 cells
[5] = target: T2, human PD-L1 expressed on cells …; test: flow cytometry with human SA, inhibition of PD-1 binding to HCC827 cells
[6] = target: CD137 on transgenic NF-kB Jurkat reporter cells (Homo sapiens (Human), UniProt Q07011 24-255); test: cell-based or functional assay
[7] = target: T2, human PD-L1 expressed on cells …; test: flow cytometry with human SA, inhibition of PD-1 binding to HCC1954 cells; remark: listed apart in the source
mouse serum albumin = target: T3, mouse serum albumin (mouse, UniProt P07724 25-608); test: SPR, immobilised MSA, pH 5.5
T3 construct: also called MSA; mouse SA

[8] = target: T1, Fc-tagged human PD-L1 extracellular …; test: SPR, captured Fc-PD-L1 ECD, kinetic
[9] = target: CD3e on Jurkat PD-1 NFAT reporter T cells or on T cells of human PBMCs (human, UniProt P07766 23-207); test: cell-based or functional assay
[10] = target: T4, recombinant human CD3E ECD (SinoBiological, cat. 10977-H08H) (human, UniProt P07766 23-126); test: SPR, immobilised CD3e ECD, two-state model (ka1)
T4 construct: extracellular domain; bought protein; also called CD3s

[11] = target: T4, recombinant human CD3E ECD …; test: SPR, immobilised CD3e ECD, two-state model (kd1)
[12] = target: T5, recombinant human Her2 ECD (SinoBiological, cat. 10004-HCCH) (human, UniProt P04626 23-652); test: SPR, immobilised Her2 ECD
T5 construct: extracellular domain; bought protein

[13] = target: T2, human PD-L1 expressed on cells …; test: flow cytometry, inhibition of biotinylated PD-1 binding to HCC827 cells
[14] = target: T4, recombinant human CD3E ECD …; test: SPR, immobilised CD3e ECD, two-state model
[15] = target: T2, human PD-L1 expressed on cells …; test: flow cytometry, inhibition of biotinylated PD-1 binding to HCC1954 cells
[16] = target: T6, recombinant human IL-23R (custom-made by Trenzyme) (human, UniProt Q5VWK5 24-355); test: SPR, immobilised IL-23R
T6 sequence (looked up): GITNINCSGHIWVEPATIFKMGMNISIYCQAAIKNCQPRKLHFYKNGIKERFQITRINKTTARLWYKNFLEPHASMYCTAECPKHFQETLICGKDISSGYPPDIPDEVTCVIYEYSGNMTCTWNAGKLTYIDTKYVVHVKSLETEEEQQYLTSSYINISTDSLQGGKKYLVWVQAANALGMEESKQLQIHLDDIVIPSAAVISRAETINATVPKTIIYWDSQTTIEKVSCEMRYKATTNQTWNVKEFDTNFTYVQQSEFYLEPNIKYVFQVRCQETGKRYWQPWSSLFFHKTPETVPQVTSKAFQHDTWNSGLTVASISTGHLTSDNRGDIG

[17] = target: T1, Fc-tagged human PD-L1 extracellular …; test: SPR, captured Fc-PD-L1 ECD, steady state
human serum albumin = target: T7, human serum albumin (human, UniProt P02768 25-609); test: SPR, immobilised HSA, pH 5.5
T7 construct: also called HSA; human SA

T3 sequence (P07724 25-608 limits assumed): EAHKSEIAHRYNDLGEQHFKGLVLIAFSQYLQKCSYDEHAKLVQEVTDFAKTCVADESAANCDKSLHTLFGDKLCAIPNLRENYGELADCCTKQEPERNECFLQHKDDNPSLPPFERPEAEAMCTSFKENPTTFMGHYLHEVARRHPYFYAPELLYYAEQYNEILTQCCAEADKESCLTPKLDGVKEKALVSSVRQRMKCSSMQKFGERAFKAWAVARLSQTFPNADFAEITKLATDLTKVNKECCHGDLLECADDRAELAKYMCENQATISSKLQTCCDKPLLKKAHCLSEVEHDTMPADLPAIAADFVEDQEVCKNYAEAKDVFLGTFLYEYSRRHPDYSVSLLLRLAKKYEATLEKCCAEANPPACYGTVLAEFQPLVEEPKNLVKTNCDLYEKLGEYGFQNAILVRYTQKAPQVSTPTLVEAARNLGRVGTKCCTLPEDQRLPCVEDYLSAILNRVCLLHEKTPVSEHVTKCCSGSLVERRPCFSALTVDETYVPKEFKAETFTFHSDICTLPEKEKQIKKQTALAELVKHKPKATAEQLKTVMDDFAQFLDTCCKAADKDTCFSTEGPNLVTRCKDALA
T4 sequence (P07766 23-126): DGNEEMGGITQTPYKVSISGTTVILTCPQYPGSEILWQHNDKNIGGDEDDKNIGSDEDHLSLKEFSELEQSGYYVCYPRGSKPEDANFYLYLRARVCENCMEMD

Kd [1]: 7.52 nM | koff [1]: 0.0135 s⁻¹ | kon [1]: 1.8e+06 M⁻¹ s⁻¹ | fold reduction of affinity vs the original domain [2]: > 100 fold
B1: PRO1076 (scFv, V domains shown)
VH: QVQLQESGPGLVKPSETLSLTCKVSGFSFSSGYDMCWIRQPPGKGLEWIGCVVAGSVDITYYASWAKGRVTISVDSSKNQFSLKLSSVTAADTAVYYCARKDAYSDAFNLWGQGTLVTVSS
VL: DIQMTQSPSSLSASVGDRVTITCQASQSINDYLAWYQQKPGKAPKLLIYKASTLASGVPSRFSGSGSGTDFTLTISSLQPEDFATYYCQQAYIITDIDNVFGTGTKVTVLG
notes: also called 33-03-G02 VL-G109A

IC50, neutralization of PD-L1 in NF-AT potency assay [3]: 36.8 µg/mL
B2: PRO1494 (scFv, V domains shown)
VH: B1 VH with Y104A
VL: B1 VL with Q90A, A91G

IC50 [4]: 0.0525 µg/mL | IC50 [5]: 53.8 µg/mL
B3: PRO1814 (multispecific antibody)
chain: DIQMTQSPSSLSASVGDRVTITCQASQSINDYLAWYQQKPGKAPKLLIYKASTLASGVPSRFSGSGSGTDFTLTISSLQPEDFATYYCQAAYIITDIDNVFGTGTKVTVLGGGGGSEVQLVESGGGLVQPGGSLRLSCAASGFTFTDYTMDWVRQAPGKGLEWVADVNPNSGGSIYNQRFKGRFTLSVDRSKNTLYLQMNSLRAEDTAVYYCARNLGPSFYFDYWGQGTLVTVSSGGGGSGGGGSGGGGSGGGGSDIQMTQSPSSLSASVGDRVTITCKASQDVSIGVAWYQQKPGKAPKLLIYSASYRYTGVPSRFSGSGSGTDFTLTISSLQPEDFATYYCQQYYIYPYTFGTGTKVTVLGGGGGSQVQLQESGPGLVKPSETLSLTCKVSGFSFSSGYDMCWIRQPPGKGLEWIGCVVAGSVDITYYASWAKGRVTISVDSSKNQFSLKLSSVTAADTAVYYCARKDAYSDAFNLWGQGTLVTVSSGGGGSGGGGSIQMTQSPSSLSASVGDRVTITCQSSESVYSNNQLSWYQQKPGQPPKLLIYDASDLASGVPSRFSGSGSGTDFTLTISSLQPEDFATYYCAGGFSSSSDTAFGGGTKLTVLGGGGGSGGGGSGGGGSGGGGSEVQLVESGGGLVQPGGSLRLSCAASGFSLSSNAMGWVRQAPGKGLEYIGIISVGGFTYYASWAKGRFTISRDNSKNTVYLQMNSLRAEDTATYFCARDRHGGDSSGAFYLWGQGTLVTVSS
notes: also called PR01814

IC50 [4]: 0.0561 µg/mL | IC50 [5]: 53.5 µg/mL
B4: PRO1854 (multispecific antibody)
chain: B3 chain with A91G, G160C, T355C, Y472A

IC50 [4]: 0.0556 µg/mL | IC50 [5]: 16.8 µg/mL
B5: PRO1852 (multispecific antibody)
chain: B3 chain with G160C, T355C

IC50 [4]: 0.0695 µg/mL | IC50 [5]: 88.2 µg/mL
B6: PRO1853 (multispecific antibody)
chain: B3 chain with A91G, Y472A

EC50, NFkB reporter gene assay, HCC827 cells [6]: 0.253 nM | EC50, NFkB reporter gene assay, HCC1954 cells [6]: 0.0824 nM | IC50 [7]: 0.592 µg/mL
B7: PRO1992 (multispecific antibody)
chain 1: DVVMTQSPSSLSASVGDRVTITCQASQIISSRSAWYQQKPGQPPKLLIYQASKLASGVPSRFSGSGSGTDFTLTISSLQPEDFATYYCQCTYIDSNFGAFGTGTKLTVLGGGGGSGGGGSGGGGSGGGGSEVQLVESGGGLVQPGGSLRLSCAASGFSFSSSYWICWVRQAPGKGLEWVGCVFTGDGTTYYASWAKGRFTISRDNSKNTVYLQMNSLRAEDTATYFCARPVSVYYYGMDLWGQGTLVTVSSGGGGSGGGGSDIQMTQSPSSLSASVGDRVTITCKASQDVSIGVAWYQQKPGKAPKLLIYSASYRYTGVPSRFSGSGSGTDFTLTISSLQPEDFATYYCQQYYIYPYTFGCGTKVTVLGGGSGGSDIQMTQSPSSLSASVGDRVTITCQASQSINDYLAWYQQKPGKAPKLLIYKASTLASGVPSRFSGSGSGTDFTLTISSLQPEDFATYYCQAAYIITDIDNVFGTGTKVTVLG
chain 2: DIQMTQSPSSLSASVGDRVTITCQASQSISNRLAWYQQKPGKAPKLLIYSASTLASGVPSRFSGSGSGTDFTLTISSLQPEDFATYYCQSTYYGNDGNAFGCGTKVTVLGGGGGSGGGGSGGGGSGGGGSEVQLVESGGGLVQPGGSLRLSCAASGFSFSANYYPCWVRQAPGKCLEWIGCIYGGSSDITYDANWTKGRFTISRDNSKNTVYLQMNSLRAEDTAVYYCARSAWYSGWGGDLWGQGTLVTVSSGGGGSGGGGSQVQLQESGPGLVKPSETLSLTCKVSGFSFSSGYDMCWIRQPPGKGLEWIGCVVAGSVDITYYASWAKGRVTISVDSSKNQFSLKLSSVTAADTAVYYCARKDAYSDAFNLWGQGTLVTVSSGGGSGGGSEVQLVESGGGLVQPGGSLRLSCAASGFTFTDYTMDWVRQAPGKCLEWVADVNPNSGGSIYNQRFKGRFTLSVDRSKNTLYLQMNSLRAEDTAVYYCARNLGPSFYFDYWGQGTLVTVSS

Kd (mouse serum albumin): 19.5 nM | koff (mouse serum albumin): 0.00112 s⁻¹ | kon (mouse serum albumin): 57500 M⁻¹ s⁻¹ | Kd [8]: 284 nM | koff [8]: 0.00117 s⁻¹ | kon [8]: 4120 M⁻¹ s⁻¹ | IC50, NFAT reporter, CHO-PD-L1 (A2 clone) cells [9]: 10.5 nM | IC50, NFAT reporter, HCC1954 cells [9]: 2.29 nM | rel. max. activation vs PRO1497, NFAT reporter, HCC1954 cells [9]: 78% | rel. max. activation vs PRO1497 on HCC1954, NFAT reporter, CHO-PD-L1 (A2 clone) cells [9]: 42% | kon [10]: 222000 M⁻¹ s⁻¹ | koff [11]: 0.00516 s⁻¹ | Kd [12]: 0.354 nM | koff [12]: 5.56e-05 s⁻¹ | kon [12]: 157000 M⁻¹ s⁻¹ | IC50 [13]: 46 µg/mL | KD1 [14]: 23.2 nM | Kd [14]: 12.7 nM | kd2 [14]: 0.0042 s⁻¹ | IC50 [15]: 0.528 µg/mL | Kd [17]: 809 nM | Kd (human serum albumin): 0.87 nM | koff (human serum albumin): 0.000121 s⁻¹ | kon (human serum albumin): 139000 M⁻¹ s⁻¹
B8: PRO1544 (multispecific antibody)
chain 1: DIQMTQSPSSLSASVGDRVTITCQASQSINDYLAWYQQKPGKAPKLLIYKASTLASGVPSRFSGSGSGTDFTLTISSLQPEDFATYYCQAAYIITDIDNVFGTGTKVTVLGGGGGSGGGGSGGGGSGGGGSQVQLQESGPGLVKPSETLSLTCKVSGFSFSSGYDMCWIRQPPGKGLEWIGCVVAGSVDITYYASWAKGRVTISVDSSKNQFSLKLSSVTAADTAVYYCARKDAYSDAFNLWGQGTLVTVSSGGGGSGGGGSDVVMTQSPSSLSASVGDRVTITCQASQIISSRSAWYQQKPGQPPKLLIYQASKLASGVPSRFSGSGSGTDFTLTISSLQPEDFATYYCQCTYIDSNFGAFGCGTKLTVLGGGSGGSDIQMTQSPSSLSASVGDRVTITCQSSQSVFSNNYLAWFQQKPGQSPKRLIYSASTLASGVPSRFSGSGSGTDFTLTISSLQPEDFATYYCLGSYACSSADCYVFGTGTKVTVLG
chain 2: not shown
binding result [16]: no binding (tested: 90 nM highest concentration)
